{
  "source": "paper PMC2847151",
  "about": "(2009)",
  "key": {"Lck SH3": {"target": "T1, Lck SH3 (Homo sapiens, UniProt P06239)", "T1 chain": "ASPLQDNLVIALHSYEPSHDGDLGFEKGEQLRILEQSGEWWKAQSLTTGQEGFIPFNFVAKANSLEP", "assay": "fluorescence titration"}, "Abl SH3": {"target": "Abl SH3 (Homo sapiens, UniProt P00519)", "sequence (P00519 58-124)": "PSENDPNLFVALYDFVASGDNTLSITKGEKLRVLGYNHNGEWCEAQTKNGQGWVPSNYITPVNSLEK", "assay": "fluorescence titration"}},
  "data": [
    {"binder": "Ac-QLPPGPPGAPKPPPAS-NH2", "note": "[MED25]", "values": [
      {"measurement": "Kd", "setting": "Lck SH3", "value": 33.5, "unit": "µM"},
      {"measurement": "Kd", "setting": "Abl SH3", "value": 2.37, "unit": "µM"}
    ]}
  ]
}
